In the supplement of paper PMC10567573:

B1: DYRK1B (parent)
chain: RFQDLVLRMLEYEPAARISPLGAL
B2: HSP90AB1 (parent)
chain: EADKNDKAVKDLVVLLFETALLSS

Variants of: B1
Test: protein stability index of a GFP-peptide fusion (GPS, HEK-293T) (PSI 1-6); higher = more stable
Settings: c terminus: a fixed tail appended
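Further: lentivirally expressed fusions sorted by FACS into six bins by GFP to DsRed ratio, PSI derived from sequencing read proportions per bin multiplied by bin number.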

Variant	protein stability index
DFQDLVLRMLEYEPAARISPLGAL	1.54
NFQDLVLRMLEYEPAARISPLGAL	2.94
WFQDLVLRMLEYEPAARISPLGAL	3
YFQDLVLRMLEYEPAARISPLGAL	2.47
HFQDLVLRMLEYEPAARISPLGAL	2.31
GFQDLVLRMLEYEPAARISPLGAL	1.58
FFQDLVLRMLEYEPAARISPLGAL	3.52
RFQDLVLRMLEYQPAARISPLGAL	3.79
RFQDLVLRMLEYHPAARISPLGAL	1.76
RFQDLVLRMLEYSPAARISPLGAL	2.48
RFQDLVLRMLEYWPAARISPLGAL	3.37
RFQDLVLRMLEYNPAARISPLGAL	2.11
RFQDLVLRMLEYTPAARISPLGAL	4.09
RFQDLVLRMLEYYPAARISPLGAL	3.29
RFQDLVLRMLEYFPAARISPLGAL	2.32
RFQDLVLRMLEYPPAARISPLGAL	3.05
RFQDLVLRMLEYGPAARISPLGAL	1.82
RFQDLVLRMLEYAPAARISPLGAL	2.87
RFQDLVLRMLEYLPAARISPLGAL	2.27
RFQDLVLRMLEYRPAARISPLGAL	1.34
RFQDLVLRMLEYDPAARISPLGAL	3.04
RFQDLVLRMLEQEPAARISPLGAL	1.44
RFQDLVLRMLEEEPAARISPLGAL	1.05
RFQDLVLRMLETEPAARISPLGAL	1.04
RFQDLVLRMLENEPAARISPLGAL	1.65
RFQDLVLRMLEWEPAARISPLGAL	2.82

Variant	protein stability index
RFQDLVLRMLESEPAARISPLGAL	2.61
RFQDLVLRMLEPEPAARISPLGAL	2
RFQDLVLRMLEGEPAARISPLGAL	1.6
RFQDLVLRMLEMEPAARISPLGAL	2.22
RFQDLVLRMLEDEPAARISPLGAL	1.99
RFQDLVLRMLEVEPAARISPLGAL	3.06
RHQDLVLRMLEYEPAARISPLGAL	2.53
RNQDLVLRMLEYEPAARISPLGAL	2.14
RTQDLVLRMLEYEPAARISPLGAL	2.42
RCQDLVLRMLEYEPAARISPLGAL	2.36
RRQDLVLRMLEYEPAARISPLGAL	2.38
RVQDLVLRMLEYEPAARISPLGAL	3.5
RQQDLVLRMLEYEPAARISPLGAL	3.35
RPQDLVLRMLEYEPAARISPLGAL	1.76
RMQDLVLRMLEYEPAARISPLGAL	3.25
RYQDLVLRMLEYEPAARISPLGAL	3.05
REQDLVLRMLEYEPAARISPLGAL	3.27
RWQDLVLRMLEYEPAARISPLGAL	1.39
RGQDLVLRMLEYEPAARISPLGAL	2.18
RDQDLVLRMLEYEPAARISPLGAL	2.38
RKQDLVLRMLEYEPAARISPLGAL	2.15
RFQDLVLRMLEYEIAARISPLGAL	1.72
RFQDLVLRMLEYELAARISPLGAL	5.01
RFQDLVLRMLEYEFAARISPLGAL	2.87
RFQDLVLRMLEYENAARISPLGAL	1.45
RFQDLVLRMLEYEEAARISPLGAL	2.21

Variant	protein stability index
RFQDYVLRMLEYEPAARISPLGAL	2.06
RFQDCVLRMLEYEPAARISPLGAL	3.97
RFQDPVLRMLEYEPAARISPLGAL	2.16
RFQDKVLRMLEYEPAARISPLGAL	1.91
RFQDMVLRMLEYEPAARISPLGAL	3.17
RFQDFVLRMLEYEPAARISPLGAL	2.62
RFQDWVLRMLEYEPAARISPLGAL	2
RFQDTVLRMLEYEPAARISPLGAL	1.49
RFQDHVLRMLEYEPAARISPLGAL	1.36
RFQDEVLRMLEYEPAARISPLGAL	1.02
RFQDDVLRMLEYEPAARISPLGAL	2.71
RFQDNVLRMLEYEPAARISPLGAL	2.28
RFQDAVLRMLEYEPAARISPLGAL	2.01
RFQDRVLRMLEYEPAARISPLGAL	1.2
RFQDQVLRMLEYEPAARISPLGAL	1.1
RFQDVVLRMLEYEPAARISPLGAL	2.42
RFQDGVLRMLEYEPAARISPLGAL	1.4
RFQNLVLRMLEYEPAARISPLGAL	1.91
RFQHLVLRMLEYEPAARISPLGAL	2.78
RFQRLVLRMLEYEPAARISPLGAL	2.31
RFQSLVLRMLEYEPAARISPLGAL	2.88
RFQKLVLRMLEYEPAARISPLGAL	2.07
RFQILVLRMLEYEPAARISPLGAL	1.1
RFQVLVLRMLEYEPAARISPLGAL	3.69

Variants of: B2
Test: as above
Settings: c terminus: a fixed tail appended

Variant	protein stability index
EADKNDKAVKDLVVLLFETALLWS	2.27
EADKNDKAVKDLVVLLFETALLYS	1.63
EADKNDKAVKDLVVLLFETALLST	1.91
EADKNDKAVKDLVVLLFETALLSI	1.51
EADKNDKAVKDLVVLLFETALLSL	2.06
EADKNDKAVKDLVVLLFETALLSE	1.93
EADKNDKAVKDLVVLLFETALLSH	1.89
EADKNDKAVKDLVVLLFETALLSR	1.65
EADKNDKAVKDLVVLLFETALLSC	1.4
EADKNDKAVKDLVVLLFETALLSW	1.75
EADKNDKAVKDLVVLLFETALLSY	2.04
EADKNDKAVKDLVVLLFETALLSQ	1.67
EADKNDKAVKDLVVLLFETALLSF	2.11
EADKNDKAVKDLVVLLFETALLSD	1.93
EADKNDKAVKDLVVLLFETALLSM	2.16
EADKNDKAVKDLVVLLFETALLSP	2.72
EADKNDKAVKDLVVLLFETALLSV	2.29
EADKNDKAVKDLVVLLFETALLSN	2.13
